In patent US12613245 (CORNELL UNIVERSITY, dated 2026):

Legend:
[1] = biological target: T1, native cell surface CEMIP/KIAA1199 on human MKN45 gastric and N2LA lung cancer cells (human, UniProt Q8WUJ3 31-1361); assay: flow cytometry on MKN45 cells
T1 construct: Endogenous CEMIP on live CEMIP-high human cell lines (MKN45, N2LA), the target in flow cytometry; also called native CEMIP expressed on the surface
T1 sequence: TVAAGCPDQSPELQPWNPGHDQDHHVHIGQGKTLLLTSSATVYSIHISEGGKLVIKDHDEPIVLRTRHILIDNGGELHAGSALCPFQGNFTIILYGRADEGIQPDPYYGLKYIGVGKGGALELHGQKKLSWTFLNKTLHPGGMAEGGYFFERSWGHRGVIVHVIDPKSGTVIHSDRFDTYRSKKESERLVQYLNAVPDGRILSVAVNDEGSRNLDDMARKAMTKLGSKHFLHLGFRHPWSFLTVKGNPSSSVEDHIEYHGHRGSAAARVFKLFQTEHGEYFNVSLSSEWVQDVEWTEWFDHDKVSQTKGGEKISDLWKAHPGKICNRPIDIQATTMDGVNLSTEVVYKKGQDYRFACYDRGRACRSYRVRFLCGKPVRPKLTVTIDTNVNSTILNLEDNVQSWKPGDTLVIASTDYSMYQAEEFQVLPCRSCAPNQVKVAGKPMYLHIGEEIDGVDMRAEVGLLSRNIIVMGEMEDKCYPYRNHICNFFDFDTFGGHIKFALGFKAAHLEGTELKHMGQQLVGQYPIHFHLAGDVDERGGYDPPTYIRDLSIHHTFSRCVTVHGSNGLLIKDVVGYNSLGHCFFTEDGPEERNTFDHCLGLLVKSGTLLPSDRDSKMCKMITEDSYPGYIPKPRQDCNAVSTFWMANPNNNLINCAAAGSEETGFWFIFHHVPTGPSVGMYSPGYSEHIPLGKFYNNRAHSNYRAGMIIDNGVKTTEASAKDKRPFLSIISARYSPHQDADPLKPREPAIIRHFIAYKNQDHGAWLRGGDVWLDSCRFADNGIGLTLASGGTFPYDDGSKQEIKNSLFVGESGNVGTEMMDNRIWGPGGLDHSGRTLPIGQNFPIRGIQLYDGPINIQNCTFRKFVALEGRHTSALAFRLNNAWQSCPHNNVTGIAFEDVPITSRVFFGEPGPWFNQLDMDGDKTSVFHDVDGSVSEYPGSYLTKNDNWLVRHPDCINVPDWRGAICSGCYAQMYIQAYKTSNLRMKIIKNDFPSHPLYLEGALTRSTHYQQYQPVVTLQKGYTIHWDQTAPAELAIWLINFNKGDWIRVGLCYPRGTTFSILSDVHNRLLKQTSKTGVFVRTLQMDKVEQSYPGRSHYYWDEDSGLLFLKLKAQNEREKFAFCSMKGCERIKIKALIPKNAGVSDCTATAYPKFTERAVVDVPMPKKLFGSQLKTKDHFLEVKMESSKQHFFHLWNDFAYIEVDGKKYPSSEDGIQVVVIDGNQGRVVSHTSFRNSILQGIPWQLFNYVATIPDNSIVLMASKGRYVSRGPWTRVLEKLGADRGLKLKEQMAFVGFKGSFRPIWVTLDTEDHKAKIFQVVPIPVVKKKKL

[2] = biological target: T2, recombinant/purified KIAA1199/CEMIP protein (amino acids 1-649) (human, UniProt Q8WUJ3 31-649); assay: ELISA on recombinant CEMIP, purified antibody (with flow cytometry as second assay)
T2 construct: Truncated CEMIP used as immunogen and as ELISA antigen; also called truncated version of KIAA1199/CEMIP protein
T2 sequence: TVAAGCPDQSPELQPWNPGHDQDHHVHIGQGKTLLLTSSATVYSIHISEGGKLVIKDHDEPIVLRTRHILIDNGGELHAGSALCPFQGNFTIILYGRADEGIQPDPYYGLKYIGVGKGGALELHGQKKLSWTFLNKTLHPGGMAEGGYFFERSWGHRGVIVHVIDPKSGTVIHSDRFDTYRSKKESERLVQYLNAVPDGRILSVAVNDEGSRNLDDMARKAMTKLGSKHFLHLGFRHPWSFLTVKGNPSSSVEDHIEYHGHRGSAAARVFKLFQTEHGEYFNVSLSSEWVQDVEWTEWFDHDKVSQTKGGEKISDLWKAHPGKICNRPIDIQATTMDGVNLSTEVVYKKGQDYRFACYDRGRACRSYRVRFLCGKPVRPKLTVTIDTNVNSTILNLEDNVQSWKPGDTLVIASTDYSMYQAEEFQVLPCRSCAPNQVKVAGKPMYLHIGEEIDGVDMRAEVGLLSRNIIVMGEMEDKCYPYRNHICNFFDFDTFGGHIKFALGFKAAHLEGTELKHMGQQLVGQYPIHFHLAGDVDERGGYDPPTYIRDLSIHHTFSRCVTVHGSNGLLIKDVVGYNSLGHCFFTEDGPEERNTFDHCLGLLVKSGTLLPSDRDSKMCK

[3] = biological target: T1, native cell surface CEMIP/KIAA1199 on …; assay: flow cytometry on live MKN45 and N2LA cells, purified antibody
Experimental: The binding of anti-CEMIP antibodies to native CEMIP expressed on the surface of human MKN45 gastric and N2LA lung cancer cell lines is shown.
Purified monoclonal antibodies were tested in secondary flow-cytometry screens on 2 CEMIPhi cell lines, MKN45 and N2LA (FIG. 13). Flow cytometry is performed on live cells, and antibodies bind to the native cell surface CEMIP/KIAA1199. Three antibody clones with high affinity and specificity for human KIAA1199/CEMIP were identified from the first screen: 07F11C02, 10F01B02 and 01F11A01, and the sequence of these antibodies was obtained (Table 12). One of these clones resulted from the protein immunization and two resulted from the DNA immunization (FIG.

B1: 12D08 (antibody, mouse IgG2a, kappa, V domains shown)
VH: EVQLQQSGAELVKPGASVKLSCTASGFNIKDTYMHWVKQRPEQGLIWIGNIDPANGHTKYAPKFQGKATITADTSSNTAYLQLSSLTSEDTAVYYCARSNDYDVDFDYWGQGTTLTVSS
VL: DIVMSQSPSSLAVSAGEKVTMSCKSSQSLLNSRTRKNYLAWYQQKPGQSPKLLIYWASTRESGVPDRFTGSGSGTDFSLTISSVQAEDLAVYYCKQSYNLYTFGGGTKLEIKR
notes: Mouse monoclonal from hybridoma (second phase screen), IgG2a kappa; also called cAb5777
binding result [1]: binds | binding result [2]: binds

B2: 07F11C02 (antibody, mouse IgG2a, kappa, V domains shown)
VH: DVQLVESGGGLVQPGGSRKLSCAASGFAFSSFGMHWVRQAPERGLEWVAYISSASNTIYYADTVKGRFTISRDNPKSTLFLQMTSLRSEDTAIYYCAKRDWDLYAMDYWGQGTSVTVSS
VL: DIVMTQSQKFLSTSVGDRVTITCKASQNVGTAVAWYQQKPGQSPELLIYSASNRHTGVPARFTGSGSGTDFTLTITNMQSEDLADYFCQQYSSSPTFGGGTKLESKR
notes: Mouse monoclonal purified from hybridoma, IgG2a kappa; also called cAb4853
binding result [3]: binds

B3: 12D02 (antibody, mouse IgG1, kappa, V domains shown)
VH: EVQLQQSGPELVKPGASMKISCKASGYSFTAYTMNWVKQSHGENLEWIGLINPYNGGTTYNQKFKGKATLTVDKSSSTAYMELLSLTSEDSAVYYCASYDYGYAMDYWGQGTSVTVSS
VL: DVLMTQTPLSLPVSLGDQASISCRSSQSIVHRNGNTYLEWYLQKPGQSPKLLIYKVSNRFSGVPDRFSGSGSGTDFTLKISRVEAEDLGVYYCFQGSHVPWTFGGGTKLEIKR
notes: Mouse monoclonal from hybridoma (second phase screen), IgG1 kappa; also called cAb5775
binding result [1]: binds | binding result [2]: binds

B4: 12A12 (antibody, mouse IgG1, kappa, V domains shown)
VH: EVQLQQSGPELVKPGVSMKISCKASGYSFTAYTMNWVKQSHGENLEWIGLINPYNGGTTYNQKFKGKATLTVDKSSSTAYMELLSLTSEDSAVYYCASYDYGYAMDYWGQGTSVTVSS
VL: DVLMTQTPLSLPVSLGDQASISCRSSQSIVHRSGNTYLEWYLQKPGQSPKLLIYKVSNRFSGVPDRFSGSGSGTDFTLKISRVEAEDLGVYYCFQGSHVPWTFGGGTKLEIKR
notes: Mouse monoclonal from hybridoma (second phase screen), IgG1 kappa; also called cAb5776
binding result [1]: binds | binding result [2]: binds

B5: 13G04 (antibody, mouse IgG1, kappa, V domains shown)
VH: EVHLQQSGPELVKPGASMKISCKASGYSFTAYTMNWVKQSHGKNLEWIGLINPYNGGTTYNQKFKGKATLTVDKSSSTAYMELLSLTSEDSAVYYCASYYGGRGWYFDVWGAGTSVTVSS
VL: DIVLTQSPASLAVSLGQRATISCRASKSVSTSGYSYVHWYQQKPGQPPKLLIYLASNLESGVPARFSGSGSGTDFTLNIHPVEEEDAATYYCQNSRELPYTFGGGTKLEMKR
notes: Mouse monoclonal from hybridoma (second phase screen), IgG1 kappa; also called cAb5778
binding result [1]: binds | binding result [2]: binds
